Data published in US20130136743A1 (LABORATOIRE FRANCAIS DU FRACTIONNEMENT ET DES …, published 2013).

What was measured:
[1] = target: T1, AMHR-II/Fc fusion protein (human, UniProt Q16671 18-149, limits assumed); test: SPR, BIAcore X100; AMHR-II/Fc immobilised on CM5 chip, antibody injected; 25 C
T1 construct: also called AMHR-II recombinant receptor expressed in the form of fusion protein with a region Fc; recombinant target; not shown: Fc region
Procedure: The affinity of the antibodies for their antigen, AMHR-II, is determined by the SPR (Surface Plasmon Resonance) technique on BIACore X100 (BIACore, GE Healthcare). The AMHR-II recombinant receptor, expressed in the form of fusion protein with a region Fc, is immobilized by covalent coupling between its amine functions and the carboxyl groups of dextran activated in succinimide esters, present on the surface of the type CM5 sensor chip. The COOH groups of the sensor chip are activated for 7 minutes with EDC/NHS mixture (0.1 M of N-hydroxysuccinimide and 0.1 M of 3-(N,N-dimethylamino)propyl-N-ethylcarbodiimide) at a flow of 10 μl/min then the AMHR-II/Fc fusion protein, diluted to 5 μg/ml in 10 mM sodium acetate buffer, pH 4.0, is injected at […] on track 2 of the sensor chip so as to reach 300 RU. The ester groups that have not reacted with the amines of the fusion protein are deactivated by injection of a solution of ethanolamine-HCl 1M, pH 8.5 for 7 min at a flow of 10 μl:min. Track 1, serving as negative control, was activated and deactivated like track 2.
All the measurements are carried out at 25° C. The antibodies to be analysed are diluted in HBS-EP running buffer (BIACore, GE Healthcare) at concentrations from 6.25 to 3333 nM and injected on the sensor chip for 2 min at a flow of 30 μl/min. The dissociation step is monitored for 10 min and then the surface is regenerated by injection of 10 mM glycine buffer, pH 1.5 for 30 s at 10 μl/min.
The sensorgrams obtained are analysed using the 1:2 kinetic model of the BIAevaluation 3.1 software.

[2] = target: T2, Epitope peptide GGGGNLTQDRAQVEMQGSR; test: method not stated; Example 2, heading names cov434-AMHR-II cells and the epitope peptide
T2 peptide: GGGGNLTQDRAQVEMQGSR

AMHR-II human receptor = target: T3, AMHR-II human receptor (human, UniProt Q16671 18-573, limits assumed); test: method not stated; determined on the AMHR-II human receptor; determined on the AMHR-II human receptor (table footnote), apart from the tabulated 2.35 × 10^-7M
T3 sequence (looked up): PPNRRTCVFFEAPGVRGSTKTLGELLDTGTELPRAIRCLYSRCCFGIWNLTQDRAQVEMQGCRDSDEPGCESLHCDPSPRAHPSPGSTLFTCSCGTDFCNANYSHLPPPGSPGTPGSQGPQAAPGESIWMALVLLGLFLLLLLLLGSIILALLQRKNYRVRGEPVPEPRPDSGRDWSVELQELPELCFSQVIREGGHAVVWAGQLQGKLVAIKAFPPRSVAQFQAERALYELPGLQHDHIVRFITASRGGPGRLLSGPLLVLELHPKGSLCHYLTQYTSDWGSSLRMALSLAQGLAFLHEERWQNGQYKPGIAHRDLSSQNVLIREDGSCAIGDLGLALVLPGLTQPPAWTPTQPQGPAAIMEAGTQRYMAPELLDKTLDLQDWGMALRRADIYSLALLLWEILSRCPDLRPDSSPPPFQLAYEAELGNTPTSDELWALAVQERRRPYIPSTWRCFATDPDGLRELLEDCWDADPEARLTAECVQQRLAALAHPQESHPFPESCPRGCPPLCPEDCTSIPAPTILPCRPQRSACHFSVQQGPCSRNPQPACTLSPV

B1: chimeric 12G4 monoclonal antibody (antibody, V domains shown)
VH: QVQLQQSGPELVKPGASVRMSCKASGYTFTSYHIHWVKQRPGQGLEWIGWIYPGDDSTKYNEKFKGKTTLTADKSSSTAYMLLSSLTSEDSAIYFCTRGDRFAYWGQGTLVTVSA
VL: QIVLTQSPAIMSASLGEGITLTCSASSSVRYIHWYQQKSGTSPKLLIYSTSNLASGVPSRFSGSGSGTFHSLTISSVEAEDAADYYCLQWSSYPWTFGGGTKLEIKR
notes: Variable regions without leader joined to the human constant regions; also called 12G4-Chimeric; unmutated chimeric 12G4 antibody
- Kd [1]: 212 nM
- koff [1]: 0.00074 s⁻¹
- kon [1]: 3500 M⁻¹ s⁻¹
- Kd [2]: 235 nM
- koff [2]: 0.00153 s⁻¹
- kon [2]: 6490 M⁻¹ s⁻¹
- Kd (AMHR-II human receptor): ~10 nM
